In article PMC7076219:

Molecular target: ligands on KG1a cells (human (endogenous in KG1a))
Experiment: flow cytometry on cells; KG1a cells stained with 10 ug/ml E-selectin protein in HBSS with 5% FBS and 2 mM CaCl2, 4 °C, 20 min; detected by Strep-tag II mAb and PE anti-mouse IgG1

B1: E-S6 (monomeric full-length extracellular mouse E-selectin) (domain or fragment)
chain: WYYNASSELMTYDEASAYCQRDYTHLVAIQNKEEINYLNSNLKHSPSYYWIGIRKVNNVWIWVGTGKPLTEEAQNWAPGEPNNKQRNEDCVEIYIQRTKDSGMWNDERCNKKKLALCYTASCTNASCSGHGECIETINSYTCKCHPGFLGPNCEQAVTCKPQEHPDYGSLNCSHPFGPFSYNSSCSFGCKRGYLPSSMETTVRCTSSGEWSAPAPACHVVECEALTHPAHGIRKCSSNPGSYPWNTTCTFDCVEGYRRVGAQNLQCTSSGIWDNETPSCKAVTCDAIPQPQNGFVSCSHSTAGELAFKSSCNFTCEQSFTLQGPAQVECSAQGQWTPQIPVCKAVQCEALSAPQQGNMKCLPSASGPFQNGSSCEFSCEEGFELKGSRRLQCGPRGEWDSKKPTCSAVKCDDVPRPQNGVMECAHATTGEFTYKSSCAFQCNEGFSLHGSAQLECTSQGKWTQEVPSCQVVQCPSLDVPGKMNMSCSGTAVFGTVCEFTCPDDWTLNGSAVLTCGATGRWSGMPPTCEAPVSPTRP
- percent of the live KG1a population bound: 86%
